Target: FgSreA, 6xHis-tagged recombinant protein (Fusarium graminearum PH-1)
Assay: MST
Settings: natural protein

FgGrx4, 6xHis-tagged recombinant protein
EC50: 17.7 µM | Kd: 0.0001 µM
